Data as given in patent publication US20200317768A1 (published 2020).

Tests used:
Assay in all cases: SPR (Biacore), antibody captured, FcgR analyte, 25 C
[1] = molecular target: T1, cynomolgus monkey FcγRIIb extracellular domain, C-terminal His-tag (cynomolgus monkey)
T1 construct: also called cyno FcγRIIb; cynoFcγRIIb; not shown: His-tag added to C-terminus
T1 chain: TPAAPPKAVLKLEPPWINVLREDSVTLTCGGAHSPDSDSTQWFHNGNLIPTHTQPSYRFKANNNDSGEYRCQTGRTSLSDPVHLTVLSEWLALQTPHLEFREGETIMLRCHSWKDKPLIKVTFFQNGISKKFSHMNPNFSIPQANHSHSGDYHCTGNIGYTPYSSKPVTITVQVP

[2] = molecular target: T2, human FcγRIIb extracellular domain, C-terminal His-tag (human, UniProt P31994 43-217)
T2 construct: also called FcgRIIb (human); not shown: His-tag added to C-terminus
T2 sequence: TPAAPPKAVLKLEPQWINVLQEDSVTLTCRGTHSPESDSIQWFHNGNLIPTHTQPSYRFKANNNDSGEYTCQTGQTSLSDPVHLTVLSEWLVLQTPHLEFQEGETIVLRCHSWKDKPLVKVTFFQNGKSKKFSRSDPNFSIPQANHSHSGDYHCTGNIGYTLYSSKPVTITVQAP

[3] = molecular target: T3, human FcγRIIaR extracellular domain, C-terminal His-tag (human, UniProt P12318 34-217)
T3 construct: also called human FcγRIIa (type R); FcgRIIaR; not shown: His-tag added to C-terminus
T3 chain: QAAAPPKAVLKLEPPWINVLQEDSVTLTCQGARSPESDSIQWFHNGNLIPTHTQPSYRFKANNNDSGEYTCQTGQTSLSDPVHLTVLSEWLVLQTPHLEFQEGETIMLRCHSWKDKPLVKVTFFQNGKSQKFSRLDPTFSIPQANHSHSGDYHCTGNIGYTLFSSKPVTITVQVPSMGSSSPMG

[4] = molecular target: T4, cynomolgus monkey FcγRIIa3 extracellular domain, C-terminal His-tag (cynomolgus monkey)
T4 construct: also called cyno FcγRIIa3; cynoFcgRIIa3; not shown: His-tag added to C-terminus
T4 chain: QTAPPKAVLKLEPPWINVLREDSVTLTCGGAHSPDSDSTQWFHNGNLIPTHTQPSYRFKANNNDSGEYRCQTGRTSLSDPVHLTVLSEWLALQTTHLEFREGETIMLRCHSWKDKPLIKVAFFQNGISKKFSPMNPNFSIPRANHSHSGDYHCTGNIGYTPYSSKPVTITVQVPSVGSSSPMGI

[5] = molecular target: T5, human FcγRIIIaV extracellular domain, C-terminal His-tag (human, UniProt P08637 17-208)
T5 construct: also called FcgRIIIaV; not shown: His-tag added to C-terminus

[6] = molecular target: T6, cynomolgus monkey FcγRIIa1 extracellular domain, C-terminal His-tag (cynomolgus monkey)
T6 construct: also called cyno FcγRIIa1; cynoFcgRIIa1; not shown: His-tag added to C-terminus
T6 chain: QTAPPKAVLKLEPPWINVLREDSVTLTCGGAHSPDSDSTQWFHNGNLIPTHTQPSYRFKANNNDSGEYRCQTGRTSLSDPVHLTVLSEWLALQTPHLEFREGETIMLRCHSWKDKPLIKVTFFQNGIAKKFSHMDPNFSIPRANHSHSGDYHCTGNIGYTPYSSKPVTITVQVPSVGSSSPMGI

[7] = molecular target: T7, cynomolgus monkey FcγRIIa2 extracellular domain, C-terminal His-tag (cynomolgus monkey)
T7 construct: also called cyno FcγRIIa2; cynoFcgRIIa2; not shown: His-tag added to C-terminus
T7 chain: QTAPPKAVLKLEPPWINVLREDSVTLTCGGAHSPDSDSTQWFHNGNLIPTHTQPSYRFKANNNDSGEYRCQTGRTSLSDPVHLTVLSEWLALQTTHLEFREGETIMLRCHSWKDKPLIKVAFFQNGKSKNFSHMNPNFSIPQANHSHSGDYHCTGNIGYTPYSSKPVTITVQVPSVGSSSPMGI

T5 sequence (P08637 17-208 F176V): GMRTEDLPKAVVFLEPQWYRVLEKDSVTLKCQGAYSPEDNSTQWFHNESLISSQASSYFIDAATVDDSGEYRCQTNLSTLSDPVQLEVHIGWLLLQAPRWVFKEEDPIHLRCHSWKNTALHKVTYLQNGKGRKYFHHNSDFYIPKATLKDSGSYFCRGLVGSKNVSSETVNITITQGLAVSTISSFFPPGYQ

Binder	Kd [1]	Kd [2]	Kd [3]	Kd [4]	Kd [5]	Kd [6]	Kd [7]
MS_M103205H795-SG1/M103202L889-SK1 (antibody, human IgG1, kappa, Parent antibody; also called MS1032LO06-SG1) heavy: not shown light: DIVMTQSPATLSLSPGERATLSCTSSQSVYHANWLSWFQQKPGQPPKLLIYWASTLAYGVPSRFSGSGSGTDFTLTISSLQPEDAATYYCAGGYGGGRYAFGQGTKVEIKRTVAAPSVFIFPPSDEQLKSGTASVVCLLNNFYPREAKVQWKVDNALQSGNSQESVTEQDSKDSTYSLSSTLTLSKADYEKHKVYACEVTHQGLSSPVTKSFNRGEC	1800 nM	4600 nM	1100 nM	17000 nM	810 nM	3200 nM	5100 nM
M103205H795-MY209/M103202L889-SK1 (antibody, human IgG1, kappa) heavy: QVTLKESGPVLVKPTETLTLTCTVSGIDLSHDDISWVRQAPGKGLEWVGIISYAGSTYYASWAKGRLTISKDTSKNQVVLTMTNMDPVDTATYYCARGVPAYSHGGDLWGQGTLVTVSSASTKGPSVFPLAPSSKSTSGGTAALGCLVKDYFPEPVTVSWNSGALTSGVHTFPAVLQSSGLYSLSSVVTVPSSSLGTQTYICNVNHKPSNTKVDKKVEPKSCDKTHTCPPCPAPELLNGPSVFLFPPKPKDTLMISRTPEVTCVVVDVSDEDPEVKFNWYVDGVEVHNAKTKPREELYNSTYRVVSVLTVLHQDWLNGKEYKCKVSNTALPKPIEKTISKAKGQPREPQVYTLPPSREEMTKNQVSLTCLVKGFYPSDIAVEWESNGQPENNYKTTPPVLDSDGSFFLYSKLTVDKSRWQQGNVFSCSVMHEALHNHYTQKSLSLSP light: DIVMTQSPATLSLSPGERATLSCTSSQSVYHANWLSWFQQKPGQPPKLLIYWASTLAYGVPSRFSGSGSGTDFTLTISSLQPEDAATYYCAGGYGGGRYAFGQGTKVEIKRTVAAPSVFIFPPSDEQLKSGTASVVCLLNNFYPREAKVQWKVDNALQSGNSQESVTEQDSKDSTYSLSSTLTLSKADYEKHKVYACEVTHQGLSSPVTKSFNRGEC	190 nM	500 nM	830 nM	1900 nM	14000 nM	630 nM	630 nM
M103205H795-MY229/M103202L889-SK1 (antibody, human IgG1, kappa) heavy: QVTLKESGPVLVKPTETLTLTCTVSGIDLSHDDISWVRQAPGKGLEWVGIISYAGSTYYASWAKGRLTISKDTSKNQVVLTMTNMDPVDTATYYCARGVPAYSHGGDLWGQGTLVTVSSASTKGPSVFPLAPSSKSTSGGTAALGCLVKDYFPEPVTVSWNSGALTSGVHTFPAVLQSSGLYSLSSVVTVPSSSLGTQTYICNVNHKPSNTKVDKKVEPKSCDKTHTCPPCPAPELLGYPSVFLFPPKPKDTLMISRTPEVTCVVVDVSDEDPEVKFNWYVDGVEVHNAKTKPREELYNSTYRVVSVLTVLHQDWLNGKEYKCKVSNKALPKPIEKTISKAKGQPREPQVYTLPPSREEMTKNQVSLTCLVKGFYPSDIAVEWESNGQPENNYKTTPKVLDSDGSFFLYSKLTVDKSRWQQGNVFSCSVMHEALHNHYTQKSLSLSP light: DIVMTQSPATLSLSPGERATLSCTSSQSVYHANWLSWFQQKPGQPPKLLIYWASTLAYGVPSRFSGSGSGTDFTLTISSLQPEDAATYYCAGGYGGGRYAFGQGTKVEIKRTVAAPSVFIFPPSDEQLKSGTASVVCLLNNFYPREAKVQWKVDNALQSGNSQESVTEQDSKDSTYSLSSTLTLSKADYEKHKVYACEVTHQGLSSPVTKSFNRGEC	470 nM	150 nM	81 nM	1900 nM		1500 nM	2200 nM
M103205H795-MY143/M103202L889-SK1 (antibody, human IgG1, kappa) heavy: QVTLKESGPVLVKPTETLTLTCTVSGIDLSHDDISWVRQAPGKGLEWVGIISYAGSTYYASWAKGRLTISKDTSKNQVVLTMTNMDPVDTATYYCARGVPAYSHGGDLWGQGTLVTVSSASTKGPSVFPLAPSSKSTSGGTAALGCLVKDYFPEPVTVSWNSGALTSGVHTFPAVLQSSGLYSLSSVVTVPSSSLGTQTYICNVNHKPSNTKVDKKVEPKSCDKTHTCPPCPAPELLSGPSVFLFPPKPKDTLMISRTPEVTCVVVDVSEEDPEVKFNWYVDGVEVHNAKTKPREEQYNSTYRVVSVLTVLHQDWLNGKEYKCKVSNKALPAPIEKTISKAKGQPREPQVYTLPPSREEMTKNQVSLTCLVKGFYPSDIAVEWESNGQPENNYKTTPMVLDSDGSFFLYSKLTVDKSRWQQGNVFSCSVMHEALHNHYTQKSLSLSP light: DIVMTQSPATLSLSPGERATLSCTSSQSVYHANWLSWFQQKPGQPPKLLIYWASTLAYGVPSRFSGSGSGTDFTLTISSLQPEDAATYYCAGGYGGGRYAFGQGTKVEIKRTVAAPSVFIFPPSDEQLKSGTASVVCLLNNFYPREAKVQWKVDNALQSGNSQESVTEQDSKDSTYSLSSTLTLSKADYEKHKVYACEVTHQGLSSPVTKSFNRGEC	460 nM	680 nM	83 nM	2900 nM	1500 nM	1100 nM	1300 nM
M103205H795-MY228/M103202L889-SK1 (antibody, human IgG1, kappa) heavy: QVTLKESGPVLVKPTETLTLTCTVSGIDLSHDDISWVRQAPGKGLEWVGIISYAGSTYYASWAKGRLTISKDTSKNQVVLTMTNMDPVDTATYYCARGVPAYSHGGDLWGQGTLVTVSSASTKGPSVFPLAPSSKSTSGGTAALGCLVKDYFPEPVTVSWNSGALTSGVHTFPAVLQSSGLYSLSSVVTVPSSSLGTQTYICNVNHKPSNTKVDKKVEPKSCDKTHTCPPCPAPELLGYPSVFLFPPKPKDTLMISRTPEVTCVVVDVSDEDPEVKFNWYVDGVEVHNAKTKPREELYNSTYRVVSVLTVLHQDWLNGKEYKCKVSNKALPKPIEKTISKAKGQPREPQVYTLPPSREEMTKNQVSLTCLVKGFYPSDIAVEWESNGQPENNYKTTPPVLDSDGSFFLYSKLTVDKSRWQQGNVFSCSVMHEALHNHYTQKSLSLSP light: DIVMTQSPATLSLSPGERATLSCTSSQSVYHANWLSWFQQKPGQPPKLLIYWASTLAYGVPSRFSGSGSGTDFTLTISSLQPEDAATYYCAGGYGGGRYAFGQGTKVEIKRTVAAPSVFIFPPSDEQLKSGTASVVCLLNNFYPREAKVQWKVDNALQSGNSQESVTEQDSKDSTYSLSSTLTLSKADYEKHKVYACEVTHQGLSSPVTKSFNRGEC	1100 nM	300 nM	100 nM		140000 nM	3000 nM	3300 nM
M103205H795-MY142/M103202L889-SK1 (antibody, human IgG1, kappa) heavy: QVTLKESGPVLVKPTETLTLTCTVSGIDLSHDDISWVRQAPGKGLEWVGIISYAGSTYYASWAKGRLTISKDTSKNQVVLTMTNMDPVDTATYYCARGVPAYSHGGDLWGQGTLVTVSSASTKGPSVFPLAPSSKSTSGGTAALGCLVKDYFPEPVTVSWNSGALTSGVHTFPAVLQSSGLYSLSSVVTVPSSSLGTQTYICNVNHKPSNTKVDKKVEPKSCDKTHTCPPCPAPELLEGPSVFLFPPKPKDTLMISRTPEVTCVVVDVSEEDPEVKFNWYVDGVEVHNAKTKPREEQYNSTYRVVSVLTVLHQDWLNGKEYKCKVSNKALPAPIEKTISKAKGQPREPQVYTLPPSREEMTKNQVSLTCLVKGFYPSDIAVEWESNGQPENNYKTTPMVLDSDGSFFLYSKLTVDKSRWQQGNVFSCSVMHEALHNHYTQKSLSLSP light: DIVMTQSPATLSLSPGERATLSCTSSQSVYHANWLSWFQQKPGQPPKLLIYWASTLAYGVPSRFSGSGSGTDFTLTISSLQPEDAATYYCAGGYGGGRYAFGQGTKVEIKRTVAAPSVFIFPPSDEQLKSGTASVVCLLNNFYPREAKVQWKVDNALQSGNSQESVTEQDSKDSTYSLSSTLTLSKADYEKHKVYACEVTHQGLSSPVTKSFNRGEC	1800 nM	950 nM	170 nM	25000 nM	530 nM	4100 nM	4900 nM
